Where a chain is given by its changes, count along the chain named.
Assays:
[1] = molecular target: T1, mouse Ang2 (construct not stated) (mouse, UniProt O35608 19-496, limits assumed); experiment: competition ELISA: antibody preincubated with mAng2, binding to coated mouse Tie2-Fc
T1 construct: also called mAng2
T1 sequence (looked up): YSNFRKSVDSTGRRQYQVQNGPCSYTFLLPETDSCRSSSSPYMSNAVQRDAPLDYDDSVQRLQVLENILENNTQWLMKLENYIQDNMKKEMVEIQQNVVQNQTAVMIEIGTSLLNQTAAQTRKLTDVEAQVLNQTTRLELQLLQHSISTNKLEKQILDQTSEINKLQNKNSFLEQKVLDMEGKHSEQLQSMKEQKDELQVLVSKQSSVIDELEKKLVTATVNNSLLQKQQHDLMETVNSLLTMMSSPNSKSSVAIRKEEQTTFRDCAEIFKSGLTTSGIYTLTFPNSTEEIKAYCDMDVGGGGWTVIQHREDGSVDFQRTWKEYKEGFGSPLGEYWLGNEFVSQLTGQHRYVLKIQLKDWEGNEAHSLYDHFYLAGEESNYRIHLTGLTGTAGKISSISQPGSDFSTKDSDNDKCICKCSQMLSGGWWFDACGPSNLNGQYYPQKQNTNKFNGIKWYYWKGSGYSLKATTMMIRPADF

[2] = molecular target: T1, mouse Ang2 (construct not stated); experiment: SPR Biacore T200, antibody captured on protein A chip, Ang2 as analyte, 1:1 model
Experimental: To analyze the binding affinity of the selected anti-Ang2 antibodies, affinity analysis for human Ang2 and mouse Ang2 was performed using BIACORE® T200 (GE Healthcare). A protein A sensor chip was used, and an experiment was conducted in accordance with the manufacturer's manual. Detailed analysis conditions are as follows. 2000 response units (RU) of protein A were immobilized, 25 RU of anti-Ang2 antibody candidates were used for binding, and various concentrations of human Ang2 and mouse Ang2 were allowed to bind. The starting concentrations for analysis are 100 nM and 150 nM, respectively. The analysis proceeded at a flow rate of 30 μl/min, the binding and dissociation time of human Ang2 was measured as 300 seconds and 2000 seconds, respectively, and the binding and dissociation time of mouse Ang2 was analyzed as 300 seconds and 1000 seconds, respectively. Analysis was performed using a 1:1 binding model as an analytical model.

[3] = molecular target: hAng2-Fc (PharmAbcine) (human) (UniProt O15123); experiment: phage ELISA, antigen coated at 1 µg/ml, anti-M13-HRP
[4] = molecular target: T2, Ang2 immobilized on a biosensor (Octet off-rate screening) (Homo sapiens (Human), UniProt O15123 19-496); experiment: Octet (BLI), Ang2 immobilized on biosensor, scFv in solution
T2 construct: also called Ang2 antigen; not shown: It is a His tag if hAng2-his (R&D 623-AN/CF) was used, or an Fc if hAng2-Fc (PharmAbcine) was used
T2 sequence: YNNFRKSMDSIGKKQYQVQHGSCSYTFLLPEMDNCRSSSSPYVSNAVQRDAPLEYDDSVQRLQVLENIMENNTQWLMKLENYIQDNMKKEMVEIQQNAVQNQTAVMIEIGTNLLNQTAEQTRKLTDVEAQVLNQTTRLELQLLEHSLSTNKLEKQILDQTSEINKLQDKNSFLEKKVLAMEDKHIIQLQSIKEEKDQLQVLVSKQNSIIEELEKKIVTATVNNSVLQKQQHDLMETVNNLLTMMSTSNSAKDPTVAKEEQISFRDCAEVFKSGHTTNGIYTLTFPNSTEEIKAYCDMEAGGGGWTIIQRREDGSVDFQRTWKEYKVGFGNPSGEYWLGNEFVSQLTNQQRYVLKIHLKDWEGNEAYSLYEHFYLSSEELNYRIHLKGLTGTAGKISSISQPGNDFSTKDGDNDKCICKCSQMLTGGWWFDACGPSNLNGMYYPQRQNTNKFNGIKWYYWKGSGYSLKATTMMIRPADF

mAng1-Fc (PharmAbcine) = molecular target: T3, mAng1-Fc (PharmAbcine) (mouse, UniProt O08538 20-498, limits assumed); experiment: phage ELISA, antigen coated at 1 µg/ml, anti-M13-HRP
T3 construct: In-house (PharmAbcine) Fc fusion; not shown: Fc part
T3 sequence (looked up): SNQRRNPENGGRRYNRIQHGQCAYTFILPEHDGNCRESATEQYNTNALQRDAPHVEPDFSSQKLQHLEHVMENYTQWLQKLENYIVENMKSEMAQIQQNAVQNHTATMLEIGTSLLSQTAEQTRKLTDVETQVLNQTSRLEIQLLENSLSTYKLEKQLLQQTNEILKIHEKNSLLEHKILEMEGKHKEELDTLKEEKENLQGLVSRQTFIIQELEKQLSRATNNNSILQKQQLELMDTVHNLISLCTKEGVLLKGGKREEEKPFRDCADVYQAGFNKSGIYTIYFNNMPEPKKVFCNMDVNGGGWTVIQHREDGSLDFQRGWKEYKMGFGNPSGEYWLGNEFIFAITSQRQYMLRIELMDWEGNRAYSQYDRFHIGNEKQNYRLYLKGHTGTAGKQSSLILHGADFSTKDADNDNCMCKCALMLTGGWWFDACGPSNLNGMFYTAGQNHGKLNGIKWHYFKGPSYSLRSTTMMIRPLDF

[5] = molecular target: human Ang2 (construct not stated) (human) (UniProt O15123); experiment: Octet (BLI), scFv immobilized on biosensor, human Ang2 in solution
[6] = molecular target: T2, Ang2 immobilized on a biosensor (Octet …); experiment: dissociation rate screening of optimized clones (method as in Example 3, Octet; not restated)

With nesvacumab (antibody) the IC50 [1] was 10.4 nM, the Kd [2] was 0.262 nM and the koff [2] was 5.51e-05 s⁻¹. The kon [2] was 210000 M⁻¹ s⁻¹.

B1: No. 46 monoclonal scFv phage (scFv, V domains shown, not shown: large carriers)
VH: QVQLVESGGGLVQPGRSLRLSCAASGFTFDDCAMHWVRQAPGKGLEWVSGISGNSKNVAYADSVKGRFSISRDDAKNSLYLQMNSLRAEDTAVYYCARDPAYSQFDYWGQGTLITVSS
VL: QSALTQPPSLSATPGQRVTISCSGSSSNVGGYPVNWYQQVPGAAPKLLMYTDYKRPSGVPDRFFGSKSGTSASLAISGLQSEDEADYYCATWDDNLNGYVFGTGTKVTVLG
modifications: scFv linker; phage coat protein fusion
With B1 the OD [3] was 1.19 OD.

B2: No. 46 candidate antibody expressed in the form of scFv (scFv, V domains shown)
VH: B1 VH
VL: B1 VL
With B2 the koff [4] was 6.14e-05 s⁻¹.

B3: No. 4 monoclonal scFv phage (scFv)
chain: QVQLVESGAEVKRPGESLRISCKTSGYSFTSYWIHWVRQMPGKELEWMGSIYPGNSDTRYSPSFQGHVTISADSSSSTAYLQWSSLKASDTAMYYCTTEGLMNGLHFDMWGQGTMVTVSSDIVMTQTPLSLPVTPGEPASISCRSSQSLLHSLGDNYLDWYLQKPGQSPQLLIYLGSKRAAGVPDRFSGSGSGTDFTLKISRVEAEDVGVYYCMQSLQTPPYTFGQGTKLEIKR
B3 showed an OD (mAng1-Fc (PharmAbcine)) of 0.093 OD and an OD [3] of 0.835 OD.

B4: No. 8 monoclonal scFv phage (scFv)
chain: QVQLVESGGGLVKPGGSLRLSCAASGFTFSSYSMNWVRQAPGKGLEWVSSISASDGATYYADSVRGRFTISRDNSRSTLYLQMNSLRAEDTAVYYCAKILAGYSGPMGGMDVWGQGTTVTVSSDIQMTQSPSSLSASVGDRVTITCRASRDISNYLAWYQQKPGKAPKSLIYGASNLQSGVSSQFSGSGSGTDFTLTINSLQPEDSATYYCQQYYSYPLTFGGGTKVDIKR
For B4, the OD (mAng1-Fc (PharmAbcine)) was 0.199 OD and the OD [3] was 1.36 OD.

B5: No. O4 scFv, optimized anti-Ang2 scFv antibody expressed in E. coli (pET-22b), refolded and purified (scFv, part only; not given: scFv linker and His tag, not shown: small tags and cut ends)
scFv, part: B4 chain with I99T
B5 showed a Kd [5] of 0.28 nM, a koff [5] of 2.54e-05 s⁻¹ and a kon [5] of 94000 M⁻¹ s⁻¹.

B6: No. 8 candidate antibody expressed in the form of scFv (scFv)
chain: B4 chain
For B6, the koff [4] was under 1e-07 s⁻¹.

B7: No. 41 monoclonal scFv phage (scFv)
chain: QVQLVESGGGLVQPGGSLRLSCEASGFAFGRYEMNWVRQAPGKGLEWIAYIDTGGGAKVYADSVKGRFTISRDDSKNSLYLQMNSLRAEDTAVYYCTTEGLMNGLHFDMWGQGTMITVSSDIQMTQSPSTLSASVGDRVAITCRASQAISTWLAWYQQKPGKAPKLLIYTASTLESGVPSRFSGSGSGTDFTLTINSLQPDDFATYYCQQLNSYPYTFGGGTKVEIKR
Work on B7 yielded an OD (mAng1-Fc (PharmAbcine)) of 0.111 OD.

B8: No. O10 optimized clone (screening of scFv phage library of No. 8 CDR3 variants) (scFv, V domains shown)
VH: QVQLVESGGGLVKPGGSLRLSCAASGFTFSSYSMNWVRQAPGKGLEWVSSISASDGATYYADSVRGRFTISRDNSRSTLYLQMNSLRAEDTAVYYCAKILVGYSGPMGGMDVWGQGTTVTVSS
VL: DIQMTQSPSSLSASVGDRVTITCRASRDISNYLAWYQQKPGKAPKSLIYGASNLQSGVSSQFSGSGSGTDFTLTINSLQPEDSATYYCQQYYSYPLTFGGGTKVDIKR
B8 showed a koff [6] of 3.92e-05 s⁻¹.

B9: No. 46 monoclonal scFv phage (scFv)
chain: QVQLVESGGGLVQPGRSLRLSCAASGFTFDDCAMHWVRQAPGKGLEWVSGISGNSKNVAYADSVKGRFSISRDDAKNSLYLQMNSLRAEDTAVYYCARDPAYSQFDYWGQGTLITVSSQSALTQPPSLSATPGQRVTISCSGSSSNVGGYPVNWYQQVPGAAPKLLMYTDYKRPSGVPDRFFGSKSGTSASLAISGLQSEDEADYYCATWDDNLNGYVFGTGTKVTVLG
With B9 the OD (mAng1-Fc (PharmAbcine)) was 0.061 OD.

B10: No. 4 candidate antibody expressed in the form of scFv (scFv, V domains shown)
VH: QVQLVESGAEVKRPGESLRISCKTSGYSFTSYWIHWVRQMPGKELEWMGSIYPGNSDTRYSPSFQGHVTISADSSSSTAYLQWSSLKASDTAMYYCTTEGLMNGLHFDMWGQGTMVTVSS
VL: DIVMTQTPLSLPVTPGEPASISCRSSQSLLHSLGDNYLDWYLQKPGQSPQLLIYLGSKRAAGVPDRFSGSGSGTDFTLKISRVEAEDVGVYYCMQSLQTPPYTFGQGTKLEIKR
B10 gave a koff [4] of 0.000212 s⁻¹.

B11: No. 3 monoclonal scFv phage (scFv, V domains shown, not shown: large carriers)
VH: QMQLVQSGGGLVQPGRSLKLSCAASGFSFDDYAMHWVRQAPGKGLEWVATIKDDGSQTYYVDSVKGRFTISRDNAKSSLFLQMNSLRAEDTAVYYCTTEGLMNGLHFDMWGQGTMVTVSS
VL: LVLTQPPSVSGAPGQGVTISCTGSSSNIGAGYDVHWYQQFPGTAPKLLISGNNNRPSGLPDRFSGSKSGTSASLAITGLQAEDEADYYCQSYDSRLGVVFGGGTKLTVLG
modifications: scFv linker; phage coat protein fusion
For B11, the OD [3] was 1.9 OD.

B12: No. 3 candidate antibody expressed in the form of scFv (scFv, V domains shown)
VH: B11 VH
VL: B11 VL
For B12, the koff [4] was 0.000642 s⁻¹.

B13: No. 41 monoclonal scFv phage (scFv, V domains shown, not shown: large carriers)
VH: QVQLVESGGGLVQPGGSLRLSCEASGFAFGRYEMNWVRQAPGKGLEWIAYIDTGGGAKVYADSVKGRFTISRDDSKNSLYLQMNSLRAEDTAVYYCTTEGLMNGLHFDMWGQGTMITVSS
VL: DIQMTQSPSTLSASVGDRVAITCRASQAISTWLAWYQQKPGKAPKLLIYTASTLESGVPSRFSGSGSGTDFTLTINSLQPDDFATYYCQQLNSYPYTFGGGTKVEIKR
modifications: scFv linker; phage coat protein fusion
B13 gave an OD [3] of 0.825 OD.

B14: No. 41 candidate antibody expressed in the form of scFv (scFv, V domains shown)
VH: B13 VH
VL: B13 VL
B14 showed a koff [4] of 1.08e-05 s⁻¹.

Source: patent US20220204603A1 (PHARMABCINE, published 2022)
